Test results published in patent publication US20060140929A1 (Merck KGaA, published 2006).
Positions count from the first letter of the chain named. Names may count otherwise.

B1: hirudin mutein M 2 (I29R L30H) (other)
chain: VVYTDCTESGQNLCLCEGSVVCGQGNKCRHGSDGEKNQCVTGEGTPKPESHNDGDFEEIPEEYLQ
B2: hirudin mutein M 25 (I29R L30R) (other)
chain: B1 chain with H30R
B3: hirudin mutein M 34 (I29T L30Q) (other)
chain: B1 chain with R29T, H30Q
B4: hirudin mutein M 33 (I29T L30K) (other)
chain: B1 chain with R29T, H30K
B5: hirudin mutein M 29 (I29S L30Q) (other)
chain: B1 chain with R29S, H30Q
B6: hirudin mutein M 27 (I29S L30A) (other)
chain: B1 chain with R29S, H30A
B7: hirudin mutein M 26 (I29R L30T) (other)
chain: B1 chain with H30T
B8: hirudin mutein M 43 (V21G) (other)
chain: B1 chain with V21G, R29I, H30L
B9: hirudin mutein M 28 (I29S L30K) (other)
chain: B1 chain with R29S, H30K
B10: hirudin mutein M 32 (I29T L30A) (other)
chain: B1 chain with R29T, H30A
B11: hirudin mutein M 42 (V21A) (other)
chain: B1 chain with V21A, R29I, H30L
B12: hirudin mutein M 36 (I29T L30T) (other)
chain: B1 chain with R29T, H30T
B13: hirudin mutein M 45 (V21K) (other)
chain: B1 chain with V21K, R29I, H30L
B14: hirudin mutein M 30 (I29S L30R) (other)
chain: B1 chain with R29S, H30R
B15: hirudin mutein M 23 (I29R L30K) (other)
chain: B1 chain with H30K
B16: hirudin mutein M 35 (I29T L30R) (other)
chain: B1 chain with R29T, H30R
B17: hirudin mutein M 31 (I29S L30T) (other)
chain: B1 chain with R29S, H30T
B18: hirudin mutein M 44 (V21H) (other)
chain: B1 chain with V21H, R29I, H30L
B19: hirudin mutein M 24 (I29R L30Q) (other)
chain: B1 chain with H30Q
B20: hirudin mutein M 11 (I29R L30R V40T) (other)
chain: B1 chain with H30R, V40T

Molecular target: thrombin
Assay: cell-based or functional assay

Binder	Relative Activity (ratio of variant IC50/WT IC50), chromogenic thrombin inhibition assay [ratio]
B1	1.2
B2	1
B3	2.4
B4	1.6
B5	2
B6	1.34
B7	1
B8	1
B9	1.5
B10	1.67
B11	0.93
B12	1.8
B13	0.9
B14	2.5
B15	0.93
B16	2.3
B17	1.1
B18	0.74
B19	1
B20	0.7
